Reference: the Human Domainome abundance scans (Beltran et al. 2025)
± gives the uncertainty stated by the source.

B1: POU domain, class 4, transcription factor 1, residues 266 to 347; numbered along this chain, Q01851 (parent)
chain: RELEAFAERFKQRRIKLGVTQADVGSALANLKIPGVGSLSQSTICRFESLTLSHNNMIALKPILQAWLEEAEGAQREKMNKP

Variants of: B1
Assay: abundance fitness (aPCA) (normalised: wild type 0, dead -1); higher = more abundant; growth selection in yeast, the domain comes from the species named
Details: Homo sapiens

Variant | abundance fitness
F10R | -0.996 ± 0.044
F10T | -0.853 ± 0.073
F10H | -0.92 ± 0.12
K61Y | 0.007 ± 0.074
K61I | 0.165 ± 0.25
K61W | -0.07 ± 0.052
K61P | -1.19 ± 0.36
K61M | -0.1 ± 0.062
K61R | -0.051 ± 0.04
H54D | -0.039 ± 0.061
H54K | 0.007 ± 0.066
H54C | -0.089 ± 0.059
H54S | 0.057 ± 0.043
H54W | -0.014 ± 0.04
H54E | 0.058 ± 0.047
A74M | -0.016 ± 0.032
A74W | -0.137 ± 0.029
A74N | -0.019 ± 0.043
A74C | 0.012 ± 0.034
L28D | -0.624 ± 0.065
L28F | -0.129 ± 0.045
L28S | -0.639 ± 0.043
L28K | -0.601 ± 0.047
L31S | -0.066 ± 0.031

Variant | abundance fitness
G73Q | 0.043 ± 0.09
G73Y | 0.144 ± 0.085
G73P | -0.259 ± 0.22
G73V | 0.071 ± 0.049
G73A | 0.015 ± 0.05
D23N | -0.067 ± 0.14
D23S | -0.027 ± 0.049
D23R | -0.173 ± 0.049
D23E | 0.027 ± 0.048
F6N | -0.79 ± 0.098
F6K | -1 ± 0.086
F6C | -0.478 ± 0.039
M79A | 0.004 ± 0.027
A5G | -0.039 ± 0.036
A5R | 0.006 ± 0.037
A5H | -0.063 ± 0.099
E69D | 0.011 ± 0.088
T51F | -0.406 ± 0.053
T51H | 0.003 ± 0.036
T51K | 0.015 ± 0.044
T51Y | -0.368 ± 0.05
T51W | -0.487 ± 0.065
K16P | -0.888 ± 0.053
K16E | 0.063 ± 0.048

Variant | abundance fitness
K16F | -0.138 ± 0.039
K16R | 0.035 ± 0.034
K16T | -0.032 ± 0.028
L3V | -0.053 ± 0.038
L3I | -0.02 ± 0.1
G37C | -0.058 ± 0.047
G37T | -0.076 ± 0.039
G37K | -0.074 ± 0.041
G37N | 0.035 ± 0.079
L68M | -0.112 ± 0.069
L68E | -0.672 ± 0.17
L68Y | -0.304 ± 0.17
Q41K | 0 ± 0.066
Q41N | -0.137 ± 0.13
Q41G | 0.003 ± 0.034
Q41H | 0.149 ± 0.11
Q41V | -0.054 ± 0.04
Q41Y | -0.194 ± 0.12
Q21V | -0.083 ± 0.046
Q21F | -0.072 ± 0.24
Q21M | -0.111 ± 0.072
Q21R | -0.058 ± 0.041
A7Q | -0.712 ± 0.056
A7C | -0.018 ± 0.037

Variant | abundance fitness
A7P | -0.525 ± 0.041
A7N | -0.582 ± 0.078
A7Y | -0.708 ± 0.088
A7F | -0.721 ± 0.069
A7H | -0.668 ± 0.078
A7S | -0.203 ± 0.028
E48W | -0.811 ± 0.078
E48V | -1.04 ± 0.072
E48K | -0.823 ± 0.091
E48D | -1 ± 0.09
T20S | -0.117 ± 0.19
T20C | 0.008 ± 0.36
G35I | 0.268 ± 0.49
N55H | -0.06 ± 0.096
N55I | -0.093 ± 0.14
N55G | 0.044 ± 0.041
K32W | -0.176 ± 0.071
K32C | -0.116 ± 0.094
K32G | -0.101 ± 0.054
G18C | -0.475 ± 0.32
G18E | -0.332 ± 0.13
G18T | -0.91 ± 0.49
R9Q | -0.043 ± 0.1
R9N | 0.012 ± 0.12

Variant | abundance fitness
A66L | -0.125 ± 0.029
A66F | -0.113 ± 0.048
A66D | 0.013 ± 0.037
A66T | -0.012 ± 0.033
A66R | -0.022 ± 0.023
A66G | -0.029 ± 0.022
A66C | -0.049 ± 0.039
A59L | -0.027 ± 0.05
A59G | -0.103 ± 0.037
A59D | -0.052 ± 0.069
A59S | -0.016 ± 0.05
A59C | -0.054 ± 0.063
A59N | -0.278 ± 0.2
I44D | -0.957 ± 0.48
I44L | -0.153 ± 0.058
E72Y | -0.138 ± 0.24
E72I | -0.179 ± 0.12
E72P | -0.348 ± 0.09
E72L | -0.431 ± 0.056
S26L | -0.016 ± 0.05
S26G | -0.032 ± 0.039
S26M | -0.049 ± 0.082
S26Y | 0.126 ± 0.1
S26D | 0.057 ± 0.068

Variant | abundance fitness
S26R | -0.004 ± 0.039
S26W | 0.024 ± 0.055
S26F | -0.008 ± 0.078
S26N | 0.285 ± 0.2
R76Q | -0.003 ± 0.035
R76I | -0.029 ± 0.04
R76E | 0.016 ± 0.028
R76N | 0.026 ± 0.063
Q12L | -0.078 ± 0.027
Q12F | -0.133 ± 0.044
Q12T | -0.021 ± 0.031
Q12K | -0.029 ± 0.039
Q12C | -0.466 ± 0.053
Q12S | -0.06 ± 0.03
L17I | -0.126 ± 0.045
L17C | -0.31 ± 0.041
N80G | -0.003 ± 0.032
N80A | 0.117 ± 0.039
N80Y | -0.037 ± 0.11
N80M | -0.004 ± 0.045
N80S | 0.051 ± 0.04
C45D | -0.139 ± 0.09
C45W | -0.076 ± 0.048
C45L | -0.073 ± 0.05

Variant | abundance fitness
C45T | 0.11 ± 0.068
C45G | -0.037 ± 0.031
A29I | -0.019 ± 0.13
A29K | 0.02 ± 0.14
A29L | -0.092 ± 0.13
L60V | -0.029 ± 0.087
L60S | -0.253 ± 0.23
L60F | -0.355 ± 0.23
L60I | -0.303 ± 0.23
R1D | 0.008 ± 0.066
R1M | 0.004 ± 0.045
R1F | 0.028 ± 0.12
T43F | -0.587 ± 0.3
T43M | 0.037 ± 0.076
T43V | -0.031 ± 0.045
T43Q | -0.113 ± 0.11
K81T | 0.03 ± 0.098
K81D | -0.024 ± 0.11
K81G | 0.021 ± 0.048
K81A | 0.148 ± 0.075
A71G | -0.379 ± 0.044
A71S | -0.079 ± 0.067
A22P | 0.13 ± 0.28
